From publication PMC4603797, “The Structural Differences between a Glycoprotein Specific F-Box Protein Fbs1 and Its Homologous Protein FBG3” (PLoS ONE, 2015) come the findings set out here.

B1: SBD of Fbs1 (117–297), wild type [murine] / ribonuclease B [modified: a single high-mannose oligosaccharide; a single high-mannose oligosaccharide] [bovine] (parent)
chain 1: FYFLSKRRRNLLRNPCGEEDLEGWSDVEHGGDGWRVEELPGDNGVEFTQDDSVKKYFASSFEWCRKAQVIDLQAEGYWEELLDTTQPAIVVKDWYSGRTDAGSLYELTVRLLSENEDVLAEFATGQVAVPEDGSWMEISHTFIDYGPGVRFVRFEHGGQDSVYWKGWFGARVTNSSVWVEP
chain 2: KETAAAKFERQHMDSSTSAASSSNYCNQMMKSRNLTKDRCKPVNTFVHESLADVQAVCSQKNVACKNGQTNCYQSYSTMSITDCRETGSSKYPNCAYKTTQANKHIIVACEGNPYVPVHFDASV

In this assay the parent is B1. The assay can be described thus: pull-down. Particulars: with ribonuclease B [modified: a single high-mannose oligosaccharide, parent: 100, read off a plot.
On to chain 1 A101C L104K, for which the percent of parent stood at 110%.
For chain 1 A101C, the percent of parent was found to be 100%.
For the variant chain 1 T99P L104K, the percent of parent is 48%.
For the variant chain 1 L104K, the percent of parent was 110%.
Regarding chain 1 T99P A101C, the percent of parent stood at 25%.
As for chain 1 T99P, the percent of parent came out at 49%.
